Assays:
[1] = molecular target: Wildcat Gp80 (mycobacteriophage Wildcat); experiment: SEC; analytical Superose 6 10/300 GL, FPLC, 0.4 ml/min, 40 mM Tris-HCl pH 7.5, 50 mM KCl, 2 mM DTT; Mw from a standard curve (thyroglobulin, beta-amylase, BSA, ovalbumin, cytochrome C)
[2] = molecular target: Wildcat Gp80 (mycobacteriophage Wildcat); experiment: dynamic light scattering; higher protein concentrations (1 uM unless otherwise stated), 50 mM Tris-HCl pH 8.0, 50 mM KCl, 2 mM DTT, 1 mM MgCl2, 25°C; weight average hydrodynamic radius; no cofactor; oligomer also kept with 4 mM AMP-PNP and with 4 mM ATP plus 24 uM 41 mer ssDNA
[3] = molecular target: T1, WCGp80 (Wildcat Gp80, DnaB-type helicase) (Mycobacteriophage Wildcat, UniProt Q19XY0 1-441); experiment: fluorescence polarization; one-site non-cooperative fit; Binding buffer, pH and temperature not given in the material; Trp quenching ex 280/em 340 nm (helicase assay buffer E: 50 mM Tris-HCl pH 8.0, 50 mM KCl, 2 mM DTT, 0.25 mg/ml BSA, 4 mM MgCl2, 4 mM ATP, 4% sucrose, 37 C); conditions: protein: recombinant; tags: N-terminal His6 (pQE30); chain copies: 6; label: 5' 6-FAM on oligo 2; fork 20 bp stem; 40 nt 5' tail on oligo1 and 40 nt 3' tail on oligo2
T1 sequence: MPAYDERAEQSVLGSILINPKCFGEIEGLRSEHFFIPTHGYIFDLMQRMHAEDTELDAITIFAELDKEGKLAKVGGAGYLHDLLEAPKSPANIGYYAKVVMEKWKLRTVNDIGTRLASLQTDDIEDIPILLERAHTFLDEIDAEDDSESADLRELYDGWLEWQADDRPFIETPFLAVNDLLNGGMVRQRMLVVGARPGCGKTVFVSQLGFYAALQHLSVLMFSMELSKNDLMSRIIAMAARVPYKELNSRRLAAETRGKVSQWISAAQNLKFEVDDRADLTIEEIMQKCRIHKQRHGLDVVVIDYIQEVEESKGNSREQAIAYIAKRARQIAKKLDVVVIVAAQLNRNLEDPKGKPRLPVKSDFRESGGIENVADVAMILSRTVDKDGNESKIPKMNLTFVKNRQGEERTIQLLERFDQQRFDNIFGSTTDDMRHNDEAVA

[4] = molecular target: T1, WCGp80 (Wildcat Gp80, DnaB-type …); experiment: tryptophan fluorescence quenching; 40 nM protein; S6 Fig legend gives 56.44 nM; Binding buffer, pH and temperature not given in the material; Trp quenching ex 280/em 340 nm (helicase assay buffer E: 50 mM Tris-HCl pH 8.0, 50 mM KCl, 2 mM DTT, 0.25 mg/ml BSA, 4 mM MgCl2, 4 mM ATP, 4% sucrose, 37 C); conditions: protein: recombinant; tags: N-terminal His6 (pQE30); chain copies: 6; single strand
[5] = molecular target: T1, WCGp80 (Wildcat Gp80, DnaB-type …); experiment: tryptophan fluorescence quenching; 40 nM protein; S6 Fig legend gives 152 nM; Binding buffer, pH and temperature not given in the material; Trp quenching ex 280/em 340 nm (helicase assay buffer E: 50 mM Tris-HCl pH 8.0, 50 mM KCl, 2 mM DTT, 0.25 mg/ml BSA, 4 mM MgCl2, 4 mM ATP, 4% sucrose, 37 C); conditions: protein: recombinant; tags: N-terminal His6 (pQE30); chain copies: 6; single strand

## Wildcat Gp80 (enzyme)
[1]
  stoichiometry N: 6
[2]
  stoichiometry N: 6

B1: fork substrate (oligo1/oligo2) (mixed)
DNA 1: GCCCTGATCACGGTACTCGGTTTTTTTTTTTTTTTTTTTTGGCTCCTCTAGACTCGACCG
DNA 2: CGGTCGAGTCTAGAGGAGCCTTTTTTTTTTTTTTTTTTTTTTTTTTTTTTTTTTTTTTTT
[3]
  Kd: 9.5 nM

B2: 41-mer (ssDNA)
DNA: TCGAGCTCGGTACCCGGGGATCCTCTAGAGTCGACCTGCAGG
[4]
  Kd: 58 nM

B3: 60-mer (oligo2) (ssDNA)
DNA: CGGTCGAGTCTAGAGGAGCCTTTTTTTTTTTTTTTTTTTTTTTTTTTTTTTTTTTTTTTT
[5]
  Kd: 164 nM

Reference: paper PMC4523182, “Biochemical Characterization of a Mycobacteriophage Derived DnaB Ortholog Reveals New Insight into the Evolutionary Origin of DnaB Helicases”
